Reference: article PMC3630103

Key:
[1] = biological target: CHIKV-IbH35 virus (West African genotype), envelope glycoproteins E2-E1 (Chikungunya virus (strain IbH35))
[2] = biological target: CHIKV-RSU1 virus (Asian genotype), envelope glycoproteins E2-E1 (Chikungunya virus (strain RSU1))

| Binder | EC50 of neutralisation of CHIKV-IbH35 (FRNT on Vero cells) [1] [µg/mL] | EC90 of neutralisation of CHIKV-IbH35 (FRNT on Vero cells) [1] [µg/mL] | EC50 of neutralisation of CHIKV-RSU1 (FRNT on Vero cells) [2] [µg/mL] | EC90 of neutralisation of CHIKV-RSU1 (FRNT on Vero cells) [2] [µg/mL] |
| --- | --- | --- | --- | --- |
| CHK-166 (mouse monoclonal antibody) (antibody, V domains shown) VH: EVRLVESGGGLEQPGGSLKLSCAASGFTFSDYFMYWVRQTPEKRLEWVAYISNGGISTFYSDAVKGRFTISRDNARNTLYLQMSRLKSEDTAIYYCVRQVYGQGYFDYWGQGTTLAVSS VL: QIVLIQSPAIMSASLGERVTMTCTASSSVSSSYLHWYQQKPGSSPKLWIYSSFSLASGVPARFSGSGSGTSYSLTISTMEAEDAATYYCHQYLRSPWTFGGGSKLEIK | 0.082 | 2.58 | 0.04 | 2.18 |
| CHK-102 (mouse monoclonal antibody) (antibody, V domains shown) VH: QVQLQQSGAELVKPGASVKISCKTSGYAFSSFWMHWVKQRPGKGLEWIGQIYPGDGDTNYNGKFKDKATLTADKSSNTAYMQLTSLTSEDSAVYFCARNLLFDYWGQGTTLTVSS VL: EILMTQSPAILSVSPGERVSFSCRASQSIGSNIHWYQQRTNGSPRLLIKYASESISGIPSRFSGSGSGTDFTLSINSVESEDIADYYCQQNNIWPFTFGSGTKLEIK | 0.006 | 0.104 | 0.005 | 1.32 |
| CHK-152 (mouse monoclonal antibody) (antibody, V domains shown) VH: QVQLQQPGAALVKPGASAMMSCKASGYTFTSYWITWVKQRPGQGLEWIGDIYPGTGRTIYKEKFKTKATLTVDTSSSTAFMQLNSLTSEDSAVYYCARGYGSPYYALDYWGQGTSVTVSS VL: DIVLTQSPASLAVSQGQRATISCKASQSVDYDGDSYVNWYQQKPGQSPKLLIYDASNLESGIPARFSGSGSGTDFTLNIHPVEEEDVATYYCQESNEDPRTFGGGTKLEIK | 0.001 | 0.006 | 0.003 | 0.015 |
| CHK-263 (mouse monoclonal antibody) (antibody, V domains shown) VH: QVQLQQSGAELVKPGASVKISCKASGYAFSSYWMNWVKQRPGKGLEWIGQIYPGDGDTNYNGKFKGKATLTADKSSSTAYMQLSSLTSEDSAVYFCARGGLTIDYWGQGTTLTVSS VL: DIVLTQSPATLSVTPGDSVSLSCRASQSISDNLHWYQQKSHESPGLLIKYASQSISGIPSRFSGSGSGTDFTLSINSVETEDFGMYFCQQSNSWPYTFGGGTKLEIK | 0.002 | 0.051 | 0.004 | 0.048 |
